Data as given in patent publication US10973880B2, “Compositions and methods for treating pulmonary hypertension” (Acceleron Pharma Inc., priority 2016, dated 2021).

Tests used:
[1] = molecular target: T1, activin B (Homo sapiens, UniProt P09529); assay: similar binding assay (Biacore); details: CHO-cell-expressed material
T1 sequence (P09529 293-407): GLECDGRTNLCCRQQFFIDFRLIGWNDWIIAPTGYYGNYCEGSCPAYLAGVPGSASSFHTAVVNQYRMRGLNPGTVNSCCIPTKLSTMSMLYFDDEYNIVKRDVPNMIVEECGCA

[2] = pharmacokinetic studies in rats; type: in vivo, rat; details: initial administration 30 mg/kg
Method: The ActRIIA-hFc was very stable in pharmacokinetic studies. Rats were dosed with 1 mg/kg, 3 mg/kg, or 10 mg/kg of ActRIIA-hFc protein, and plasma levels of the protein were measured at 24, 48, 72, 144 and 168 hours. In a separate study, rats were dosed at 1 mg/kg, 10 mg/kg, or 30 mg/kg.

[3] = pharmacokinetics in cynomolgus monkeys; type: in vivo, cynomolgus monkey; details: initial administration 10 mg/kg
[4] = molecular target: T2, BMP10 (Homo sapiens, UniProt O95393); assay: Biacore ligand affinity (Example 10); type: binding; details: Smad 1/5/8 ligand
T2 sequence (O95393 317-424): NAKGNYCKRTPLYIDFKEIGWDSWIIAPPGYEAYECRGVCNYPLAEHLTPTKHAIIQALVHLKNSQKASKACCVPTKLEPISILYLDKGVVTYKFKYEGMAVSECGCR
Method: (§1) The affinity of GDF traps and other ActRIIB-hFc proteins for several ligands was evaluated in vitro with a Biacore™ instrument. Kd values were obtained by steady-state affinity fit due to the very rapid association and dissociation of the complex, which prevented accurate determination of kon and koff.

[5] = molecular target: T3, BMP6 (Homo sapiens, UniProt P22004); assay: Biacore ligand affinity (Example 10); type: binding; details: Smad 1/5/8 ligand
T3 sequence (P22004 375-513): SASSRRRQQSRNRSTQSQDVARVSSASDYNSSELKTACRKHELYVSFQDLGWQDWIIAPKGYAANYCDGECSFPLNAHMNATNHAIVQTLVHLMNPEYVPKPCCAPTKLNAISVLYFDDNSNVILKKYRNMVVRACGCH
Method: as §1

[6] = molecular target: T4, GDF8 (Homo sapiens, UniProt O14793); assay: Biacore ligand affinity (Example 10); type: binding; details: Smad 2/3 signaling ligand
T4 sequence (O14793 267-375): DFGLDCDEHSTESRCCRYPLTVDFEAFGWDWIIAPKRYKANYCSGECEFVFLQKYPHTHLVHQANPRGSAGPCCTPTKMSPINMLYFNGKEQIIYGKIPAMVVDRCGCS
Method: as §1

[7] = molecular target: T5, activin A (Homo sapiens, UniProt P08476); assay: A-204 reporter gene assay, pGL3(CAGA)12 luciferase; type: cell-based
T5 sequence (P08476 311-426): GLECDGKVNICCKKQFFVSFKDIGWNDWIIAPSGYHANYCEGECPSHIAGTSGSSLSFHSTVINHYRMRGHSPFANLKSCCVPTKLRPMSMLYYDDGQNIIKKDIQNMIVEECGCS
Text: An A-204 reporter gene assay was used to evaluate the effects of ActRIIB-Fc proteins and GDF traps on signaling by GDF-11 and activin A. Cell line: human rhabdomyosarcoma (derived from muscle). Reporter vector: pGL3(CAGA)12 (described in Dennler et al, 1998, EMBO 17: 3091-3100). The CAGA12 motif is present in TGF-beta responsive genes (e.g., PAI-1 gene), so this vector is of general use for factors signaling through SMAD2 and 3.
Day 1: Split A-204 cells into 48-well plate.
Day 2: A-204 cells transfected with 10 ug pGL3(CAGA)12 or pGL3(CAGA)12(10 ug)+pRLCMV (1 μg) and Fugene.
Day 3: Add factors (diluted into medium+0.1% BSA). Inhibitors need to be preincubated with factors for 1 hr before adding to cells. Six hrs later, cells were rinsed with PBS and lysed.
This is followed by a luciferase assay.
(§2) In addition, an A-204 Reporter Gene Assay was used to evaluate the effects of ALK4-Fc:ActRIIB-Fc heterodimer and ActRIIB-Fc:ActRIIB-Fc homodimer on signaling by activin A, activin B, GDF11, GDF8, BMP10, and BMP9. Cell line: Human Rhabdomyosarcoma (derived from muscle). Reporter vector: pGL3(CAGA)12 (as described in Dennler et al, 1998, EMBO 17: 3091-3100). The CAGA12 motif is present in TGFβ responsive genes (PAI-1 gene), so this vector is of general use for factors signaling through Smad2 and 3. An exemplary A-204 Reporter Gene Assay is outlined below. • Day 1: Split A-204 cells into 48-well plate. • Day 2: A-204 cells transfected with 10 ug pGL3(CAGA)12 or pGL3(CAGA)12(10 ug)+pRLCMV (1 ug) and Fugene. • Day 3: Add factors (diluted into medium+0.1% BSA). Inhibitors need to be pre-incubated with Factors for about one hr before adding to cells. About six hrs later, cells are rinsed with PBS and then lysed.
(§3) Following the above steps, a Luciferase assay was performed.

[8] = molecular target: T6, GDF11 (Homo sapiens, UniProt O95390); assay: A-204 reporter gene assay, pGL3(CAGA)12 luciferase; type: cell-based
T6 sequence (O95390 299-407): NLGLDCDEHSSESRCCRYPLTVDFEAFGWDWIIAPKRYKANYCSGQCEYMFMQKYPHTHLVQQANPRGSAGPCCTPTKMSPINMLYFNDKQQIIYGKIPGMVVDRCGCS
Text: (§4) Day 1: Split A-204 cells into 48-well plate. […]
as §2, §3

[9] = molecular target: T6, GDF11; assay: Biacore assay, receptor captured with anti-hFc antibody; type: binding
Method: (§5) Binding of certain ActRIIB-Fc proteins and GDF traps to ligands was tested in a Biacore assay.
(§6) The ActRIIB-Fc variants or wild-type protein were captured onto the system using an anti-hFc antibody. Ligands were injected and flowed over the captured receptor proteins.

[10] = molecular target: T4, GDF8; assay: as above; type: binding
Method: as §5, §6

[11] = molecular target: T5, activin A; assay: as above; type: binding
Method: as §5, §6

[12] = system: activin; assay: ActRIIB-Fc affinity for ligand (description); type: binding; details: ascertained by Applicants
[13] = molecular target: T6, GDF11; assay: ActRIIB-Fc affinity for ligand (description); type: binding; details: ascertained by Applicants
[14] = molecular target: T4, GDF8; assay: A-204 reporter gene assay, pGL3(CAGA)12 luciferase; type: cell-based; parameters: host or cells: exogenous factor added to A-204 cells (human rhabdomyosarcoma)
Text: as §4, §2, §3

[15] = system: activin; details: see U.S. Pat. No. 7,842,663; cited from earlier work
[16] = molecular target: T6, GDF11; details: see U.S. Pat. No. 7,842,663; cited from earlier work
[17] = molecular target: T2, BMP10; assay: Biacore-based binding assay, receptor captured with anti-Fc antibody
Method: (§7) A Biacore™-based binding assay was used to compare ligand binding selectivity of the ALK4-Fc:ActRIIB-Fc heterodimeric complex described above with that of ActRIIB-Fc and ALK4-Fc homodimer complexes. The ALK4-Fc:ActRIIB-Fc heterodimer, ActRIIB-Fc homodimer, and ALK4-Fc homodimer were independently captured onto the system using an anti-Fc antibody. Ligands were injected and allowed to flow over the captured receptor protein. Results are summarized in the table below, in which ligand off-rates (kd) most indicative of effective ligand traps are denoted in bold font.

[18] = molecular target: T3, BMP6; assay: as above
Method: as §7

[19] = molecular target: T7, BMP9 (Homo sapiens, UniProt Q9UK05); assay: as above
T7 sequence (Q9UK05 320-429): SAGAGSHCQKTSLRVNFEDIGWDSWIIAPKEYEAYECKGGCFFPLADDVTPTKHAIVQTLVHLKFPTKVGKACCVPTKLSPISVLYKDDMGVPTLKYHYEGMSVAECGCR
Method: as §7

[20] = molecular target: T6, GDF11; assay: as above
Method: as §7

[21] = molecular target: T8, GDF3 (Homo sapiens, UniProt Q9NR23); assay: as above
T8 sequence (Q9NR23 251-364): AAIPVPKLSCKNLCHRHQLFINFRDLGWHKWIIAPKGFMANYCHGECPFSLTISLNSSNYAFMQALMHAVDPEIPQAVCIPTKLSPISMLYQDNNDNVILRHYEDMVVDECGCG
Method: as §7

[22] = molecular target: T4, GDF8; assay: as above
Method: as §7

[23] = molecular target: T5, activin A; assay: as above
Method: as §7

[24] = molecular target: T1, activin B; assay: as above
Method: as §7

[25] = molecular target: T1, activin B; assay: A-204 reporter gene assay, pGL3(CAGA)12 luciferase; type: cell-based; parameters: host or cells: exogenous factor added to A-204 cells (human rhabdomyosarcoma); details: Example 13
Text: as §2, §3

Molecule: ActRIIA-hFc: extracellular domain of human ActRIIa fused to a human Fc domain with a minimal linker (SEQ ID NO: 32); homodimer
- affinity for activin B ligand compared with that reported for ActRIIa-hFc expressed in human 293 cells [1]: higher affinity
- circulating levels of the drug after two weeks [2]: 30 µg/mL
- circulating levels of the drug [3]: 30 µg/mL

Molecule: ActRIIB(L79D 25-131)-hFc: GDF trap with truncated ActRIIB extracellular domain (residues 25-131, L79D) fused to human Fc (SEQ ID NO: 78)
- binding to BMP10 [4]: strong to intermediate binding
- binding to BMP6 [5]: strong to intermediate binding
- binding to GDF8 [6]: strong to intermediate binding

B1: ActRIIB(20-134)-hFc: extracellular domain of human ActRIIB (20-134, R64) fused to a human Fc domain with a minimal linker (SEQ ID NO: 40) (protein)
chain: GRGEAETRECIYYNANWELERTNQSGLERCEGEQDKRLHCYASWRNSSGTIELVKKGCWLDDFNCYDRQECVATEENPQVYFCCCEGNFCNERFTHLPEAGGPEVTYEPPPTAPTGGGTHTCPPCPAPELLGGPSVFLFPPKPKDTLMISRTPEVTCVVVDVSHEDPEVKFNWYVDGVEVHNAKTKPREEQYNSTYRVVSVLTVLHQDWLNGKEYKCKVSNKALPVPIEKTISKAKGQPREPQVYTLPPSREEMTKNQVSLTCLVKGFYPSDIAVEWESNGQPENNYKTTPPVLDSDGSFFLYSKLTVDKSRWQQGNVFSCSVMHEALHNHYTQKSLSLSPGK
- inhibition of activin A activity ([7]; A-204 reporter gene assay): potent inhibitor
- inhibition of GDF-11 activity ([8]; A-204 reporter gene assay): potent inhibitor
- Koff, GDF11 [9]: 0.000113 s⁻¹
- Koff, GDF8 [10]: 3.45e-05 s⁻¹
- Koff, Activin A [11]: 0.000159 s⁻¹
- Kon, Activin A [11]: 5.94e+06 M⁻¹ s⁻¹
- affinity for activin [12]: low nanomolar to high picomolar range
- affinity for GDF11 [13]: low nanomolar to high picomolar range
- inhibition of GDF-8 activity ([14]; A-204 reporter gene assay): potent inhibitor

B2: ActRIIB(20-119)-Fc: ActRIIB-Fc fusion protein containing amino acids 20-119 of SEQ ID NO: 1 (protein)
chain: GRGEAETRECIYYNANWELERTNQSGLERCEGEQDKRLHCYASWRNSSGTIELVKKGCWLDDFNCYDRQECVATEENPQVYFCCCEGNFCNERFTHLPEA
modifications: Fc fusion, Fc no entry
- binding to activin relative to ActRIIB(20-134)-Fc [15]: reduced binding
- binding to GDF11 relative to ActRIIB(20-134)-Fc [16]: reduced binding

B3: ActRIIB-Fc homodimer: homodimer complex of ActRIIB-Fc fusion polypeptide (protein)
chain: GRGEAETRECIYYNANWELERTNQSGLERCEGEQDKRLHCYASWRNSSGTIELVKKGCWLDDFNCYDRQECVATEENPQVYFCCCEGNFCNERFTHLPEAGGPEVTYEPPPTAPT
modifications: left off: a dimerising Fc or GST
notes: homodimer complex of ActRIIB-Fc fusion polypeptide
- inhibition of activin A signaling ([7]; Example 13): potent inhibitors
- inhibition of GDF11 signaling ([8]; Example 13): potent inhibitors
- Kd [17]: 0.011 nM
- ka, BMP10 [17]: 2.3e+07 M⁻¹ s⁻¹
- kd, BMP10 [17]: 0.00026 s⁻¹
- ka, BMP6 [18]: 3.2e+07 M⁻¹ s⁻¹
- kd, BMP6 [18]: 0.0068 s⁻¹
- Kd [19]: 0.077 nM
- ka, BMP9 [19]: 1.4e+07 M⁻¹ s⁻¹
- kd, BMP9 [19]: 0.0011 s⁻¹
- ka, GDF11 [20]: 5e+07 M⁻¹ s⁻¹
- kd, GDF11 [20]: 0.00011 s⁻¹
- Kd ([20]; † = very low signal): 0.002 nM
- Kd [21]: 1.5 nM
- ka, GDF3 [21]: 1.4e+06 M⁻¹ s⁻¹
- kd, GDF3 [21]: 0.0022 s⁻¹
- ka, GDF8 [22]: 830000 M⁻¹ s⁻¹
- kd, GDF8 [22]: 0.00023 s⁻¹
- Kd ([22]; † = very low signal): 0.28 nM
- ka, Activin A [23]: 1.2e+07 M⁻¹ s⁻¹
- kd, Activin A [23]: 0.00023 s⁻¹
- ka, Activin B [24]: 5.1e+06 M⁻¹ s⁻¹
- kd, Activin B [24]: 0.0001 s⁻¹
- inhibition of GDF8 signaling ([14]; Example 13): potent inhibitors
- inhibition of activin B signaling [25]: potent inhibitors
